This data set deals with the molecule itself. Nature of the data set: ThT fluorescence aggregation + negative-stain TEM.

Turning to TENLQHQPGGGQVQIVYK (peptide, UniProt P10636-8 263-274, looked up) [R1R3_12Q], the binding result is “binds”.

For the protein KDNIQHVPGGGSVQIVYK (peptide, UniProt P10636-8 294-311, looked up) [R2R3_2Q], the binding result is “binds”.

Regarding TENLQHQPGGGKVQIVYQ (peptide, UniProt P10636-8 263-274, looked up) [R1R3_13Q], the binding result is “binds”.

With TENLKHQPGGGQVQIVYQ (peptide, UniProt P10636-8 263-274, looked up) [R1R3_23Q], the binding result was “binds”.

Source of the values: article PMC10527703 (Structure (London, England : 1993), 2023).
